Results published in PMC3174981.

Biological target: HIV-1 Gag polyprotein (p6 region) (HIV-1 (NL4-3))

Substance: HIV-1 Vpr L22E (from UniProt P12520 1-96) (natural protein)
- % Vpr incorporation into virions relative to WT Vpr (western blot densitometry, Vpr band normalised to p24 CA): 20 % of WT
